Tests used:
[1] = target: LeishIF4E-3-SBP
[2] = target: LeishIF4E-1-SBP

“MBP-Leish4E-IP2_(1-134) (domain or fragment)” showed a reduction of the binding of SBP-LeishIF4E-3 (cell lysate) to m7GTP-agarose by 0, 5, 10, 20 ug MBP-Leish4E-IP2 (1-134) per 300 ul, densitometry of anti-SBP blots; 60% at 5 ug [1] of 96% and a reduction of the binding of SBP-LeishIF4E-1 (cell lysate) to m7GTP-agarose by 0, 5, 10, 20 ug MBP-Leish4E-IP2 (1-134) per 300 ul, densitometry of anti-SBP blots; 13% at 5 ug; MBP alone had no effect [2] of 42%.

Source: paper PMC7192595
